Measurements from patent US20250154231A1.
Where two headings read alike, the source gives them in different places.

Assays:
Assay in all cases: cell-based or functional assay
[1] = molecular target: SARS-CoV-2 Beta spike (S) protein (SARS-CoV-2) (UniProt P0DTC2)
[2] = molecular target: SARS-CoV-2 Delta spike (S) protein (SARS-CoV-2) (UniProt P0DTC2)
[3] = molecular target: SARS-CoV-2 spike (S) protein, Omicron BA.2 (SARS-CoV-2) (UniProt P0DTC2)
[4] = molecular target: SARS-CoV-2 spike (S) protein, Omicron BA.1 (SARS-CoV-2) (UniProt P0DTC2)
[5] = molecular target: SARS-CoV-2 Victoria spike (S) protein (SARS-CoV-2) (UniProt P0DTC2)
[6] = molecular target: SARS-CoV-2 spike (S) protein, Omicron BA.3 (SARS-CoV-2) (UniProt P0DTC2)
[7] = molecular target: SARS-CoV-2 spike (S) protein, Omicron BA.4/5 (SARS-CoV-2) (UniProt P0DTC2)
[8] = molecular target: SARS-CoV-2 Omicron BA.1.1 spike (S) protein (SARS-CoV-2) (UniProt P0DTC2)
[9] = molecular target: SARS-CoV-2 spike (S) protein, Omicron BA.4.6 (SARS-CoV-2) (UniProt P0DTC2)
[10] = molecular target: SARS-CoV-2 spike (S) protein, Victoria strain (SARS-CoV-2) (UniProt P0DTC2)
[11] = molecular target: SARS-CoV-2 Alpha spike (S) protein (SARS-CoV-2) (UniProt P0DTC2)
[12] = molecular target: SARS-CoV-2 Omicron BA.2 spike (S) protein (SARS-CoV-2) (UniProt P0DTC2)
[13] = molecular target: SARS-CoV-2 spike (S) protein, Omicron BA.1.1 (SARS-CoV-2) (UniProt P0DTC2)
[14] = molecular target: SARS-CoV-2 Omicron BA.1 spike (S) protein of the live isolate (SARS-CoV-2) (UniProt P0DTC2)
[15] = molecular target: SARS-CoV-2 Gamma spike (S) protein (SARS-CoV-2) (UniProt P0DTC2)
[16] = molecular target: SARS-CoV-2 spike (S) protein, Omicron BA.2.75 (SARS-CoV-2) (UniProt P0DTC2)
[17] = molecular target: SARS-CoV-2 spike (S) protein, Omicron BA.2.75.2 (SARS-CoV-2) (UniProt P0DTC2)
[18] = molecular target: SARS-CoV-2 spike (S) protein, Omicron BA.2.3.20 (SARS-CoV-2) (UniProt P0DTC2)
[19] = molecular target: SARS-CoV-2 spike (S) protein, Omicron BA.2 (SARS-CoV-2) (UniProt P0DTC2); remark: listed apart in the source
[20] = molecular target: SARS-CoV-2 spike (S) protein, Omicron BJ.1 (SARS-CoV-2) (UniProt P0DTC2)
[21] = molecular target: SARS-CoV-2 spike (S) protein, Omicron BA.4/5 (SARS-CoV-2) (UniProt P0DTC2); remark: listed apart in the source
[22] = molecular target: SARS-CoV-2 spike (S) protein, Omicron BA.4.6 (SARS-CoV-2) (UniProt P0DTC2); remark: listed apart in the source
[23] = molecular target: SARS-CoV-2 spike (S) protein, Omicron BA.2.75 (SARS-CoV-2) (UniProt P0DTC2); remark: listed apart in the source
[24] = molecular target: SARS-CoV-2 spike (S) protein, Victoria strain (SARS-CoV-2) (UniProt P0DTC2); remark: listed apart in the source
[25] = molecular target: SARS-CoV-2 Omicron BA.2 spike (S) protein, pseudovirus construct (SARS-CoV-2) (UniProt P0DTC2)
[26] = molecular target: SARS-CoV-2 Omicron BA.1.1 spike (S) protein, pseudovirus construct (SARS-CoV-2) (UniProt P0DTC2)
[27] = molecular target: SARS-CoV-2 Omicron BA.1 spike (S) protein, pseudovirus construct (SARS-CoV-2) (UniProt P0DTC2)
[28] = molecular target: SARS-CoV-2 Omicron BA.3 spike (S) protein, pseudovirus construct (SARS-CoV-2) (UniProt P0DTC2)

Known Antibody D (AZD8895), sequence (VH): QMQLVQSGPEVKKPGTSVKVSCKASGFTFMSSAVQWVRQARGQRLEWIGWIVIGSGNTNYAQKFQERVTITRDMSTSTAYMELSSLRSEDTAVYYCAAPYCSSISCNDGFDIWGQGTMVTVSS
Known Antibody D (AZD8895), sequence (VL): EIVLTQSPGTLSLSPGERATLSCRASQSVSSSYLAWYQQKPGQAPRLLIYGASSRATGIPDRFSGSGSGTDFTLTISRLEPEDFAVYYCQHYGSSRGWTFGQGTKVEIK

Substance: ADG10 (antibody)
- IC50, authentic virus neutralization [1]: 0.011 µg/mL
- IC50, authentic virus neutralization [2]: 0.026 µg/mL
- IC50, pseudoviral neutralization [3]: > 10 µg/mL
- pseudovirus neutralisation IC50 [3]: > 10 µg/mL
- IC50, pseudoviral neutralization [4]: > 10 µg/mL
- pseudovirus neutralisation IC50 [4]: > 10 µg/mL
- IC50, authentic virus neutralization [5]: 0.006 µg/mL
- IC50, pseudoviral neutralization [6]: > 10 µg/mL
- pseudovirus neutralisation IC50 [6]: > 10 µg/mL
- IC50, pseudoviral neutralization [7]: > 10 µg/mL
- pseudovirus neutralisation IC50 [7]: > 10 µg/mL
- IC50, authentic virus neutralization [8]: > 10 µg/mL
- IC50, pseudoviral neutralization [9]: > 10 µg/mL
- IC50, pseudoviral neutralization [10]: 0.007 µg/mL
- pseudovirus neutralisation IC50 [10]: 0.007 µg/mL
- IC50, authentic virus neutralization [11]: 0.01 µg/mL
- IC50, authentic virus neutralization [12]: > 10 µg/mL
- IC50, pseudoviral neutralization [13]: > 10 µg/mL
- pseudovirus neutralisation IC50 [13]: > 10 µg/mL
- IC50, authentic virus neutralization [14]: > 10 µg/mL
- IC50, authentic virus neutralization [15]: 0.003 µg/mL
- pseudovirus neutralisation IC50 [16]: > 10 µg/mL

Substance: ADG30 (antibody)
- IC50, authentic virus neutralization [1]: 0.029 µg/mL
- IC50, authentic virus neutralization [2]: 0.033 µg/mL
- IC50, pseudoviral neutralization [3]: > 10 µg/mL
- pseudovirus neutralisation IC50 [3]: > 10 µg/mL
- IC50, pseudoviral neutralization [4]: > 10 µg/mL
- pseudovirus neutralisation IC50 [4]: > 10 µg/mL
- IC50, authentic virus neutralization [5]: 0.007 µg/mL
- IC50, pseudoviral neutralization [6]: > 10 µg/mL
- pseudovirus neutralisation IC50 [6]: > 10 µg/mL
- IC50, pseudoviral neutralization [7]: > 10 µg/mL
- pseudovirus neutralisation IC50 [7]: > 10 µg/mL
- IC50, authentic virus neutralization [8]: > 10 µg/mL
- IC50, pseudoviral neutralization [9]: > 10 µg/mL
- IC50, pseudoviral neutralization [10]: 0.014 µg/mL
- pseudovirus neutralisation IC50 [10]: 0.014 µg/mL
- IC50, authentic virus neutralization [11]: 0.016 µg/mL
- IC50, authentic virus neutralization [12]: > 10 µg/mL
- IC50, pseudoviral neutralization [13]: > 10 µg/mL
- pseudovirus neutralisation IC50 [13]: > 10 µg/mL
- IC50, authentic virus neutralization [14]: > 10 µg/mL
- IC50, authentic virus neutralization [15]: 0.002 µg/mL
- pseudovirus neutralisation IC50 [16]: > 10 µg/mL

Substance: AZD7442
- IC50, pseudoviral neutralization [3]: 0.008 µg/mL
- pseudovirus neutralisation IC50 [3]: 0.008 µg/mL
- IC50, pseudoviral neutralization [4]: 0.232 µg/mL
- pseudovirus neutralisation IC50 [4]: 0.232 µg/mL
- IC50, pseudoviral neutralization [6]: 0.065 µg/mL
- pseudovirus neutralisation IC50 [6]: 0.065 µg/mL
- IC50, pseudoviral neutralization [7]: 0.065 µg/mL
- pseudovirus neutralisation IC50 [7]: 0.065 µg/mL
- IC50, pseudoviral neutralization [9]: > 10 µg/mL
- IC50, pseudoviral neutralization [10]: 0.001 µg/mL
- pseudovirus neutralisation IC50 [10]: 0.001 µg/mL
- IC50, pseudoviral neutralization [13]: 0.806 µg/mL
- pseudovirus neutralisation IC50 [13]: 0.806 µg/mL
- pseudovirus neutralisation IC50 [16]: 0.017 µg/mL

Substance: AZD7442 (a combination of AZD8895 and AZD1061)
- IC50, pseudoviral neutralization [17]: > 10 µg/mL
- IC50, pseudoviral neutralization [18]: 0.025 µg/mL
- IC50, pseudoviral neutralization [19]: 0.008 µg/mL
- IC50, pseudoviral neutralization [20]: 2.73 µg/mL
- IC50, pseudoviral neutralization [21]: 0.065 µg/mL
- IC50, pseudoviral neutralization [22]: > 10 µg/mL
- IC50, pseudoviral neutralization [23]: 0.017 µg/mL
- IC50, pseudoviral neutralization [24]: 0.001 µg/mL

Substance: AZD7442 (antibody)
- IC50, authentic virus neutralization [1]: 0.012 µg/mL
- IC50, authentic virus neutralization [2]: 0.005 µg/mL
- IC50, authentic virus neutralization [5]: 0.009 µg/mL
- IC50, authentic virus neutralization [8]: 3.82 µg/mL
- IC50, authentic virus neutralization [11]: 0.007 µg/mL
- IC50, authentic virus neutralization [12]: 0.052 µg/mL
- IC50, authentic virus neutralization [14]: 0.273 µg/mL
- IC50, authentic virus neutralization [15]: 0.006 µg/mL

Substance: Known Antibody A (REGN 10987)
- IC50 (ug/ml), pseudovirus [25]: 0.616 µg/mL
- IC50 (ug/ml), pseudovirus [5]: 0.002 µg/mL
- IC50 (ug/ml), pseudovirus [26]: > 10 µg/mL
- IC50 (ug/ml), pseudovirus [27]: > 10 µg/mL
- IC50 (ug/ml), pseudovirus [28]: > 10 µg/mL

Substance: Known Antibody B (REGN 10933)
- IC50 (ug/ml), pseudovirus [25]: > 10 µg/mL
- IC50 (ug/ml), pseudovirus [5]: 0.001 µg/mL
- IC50 (ug/ml), pseudovirus [26]: > 10 µg/mL
- IC50 (ug/ml), pseudovirus [27]: > 10 µg/mL
- IC50 (ug/ml), pseudovirus [28]: > 10 µg/mL

Substance: Known Antibody C (AZD1061)
- IC50 (ug/ml), pseudovirus [25]: 0.008 µg/mL
- IC50 (ug/ml), pseudovirus [5]: 0.002 µg/mL
- IC50 (ug/ml), pseudovirus [26]: > 10 µg/mL
- IC50 (ug/ml), pseudovirus [27]: 0.308 µg/mL
- IC50 (ug/ml), pseudovirus [28]: 0.019 µg/mL

Substance: Known Antibody D (AZD8895)
- IC50 (ug/ml), pseudovirus [25]: 1.33 µg/mL
- IC50 (ug/ml), pseudovirus [5]: 0.001 µg/mL
- IC50 (ug/ml), pseudovirus [26]: 0.1 µg/mL
- IC50 (ug/ml), pseudovirus [27]: 0.246 µg/mL
- IC50 (ug/ml), pseudovirus [28]: > 10 µg/mL
